Experimental data taken from patent US20210122814A1.
Residue numbers refer to the chain shown, from its start. One block for each binder: values may come before it.

How the values were obtained:
[1] = molecular target: Cell-associated proTGFβ1 (hGARP-proTGFβ1 and hLRRC33-proTGFβ1); test: BLI (Octet); Cell AVRG over ECM AVRG
[2] = molecular target: Matrix-associated proTGFβ1 (hLTBP1-proTGFβ1 and hLTBP3-proTGFβ1); test: BLI (Octet)
[3] = molecular target: Cell-associated proTGFβ1 (hGARP-proTGFβ1 and hLRRC33-proTGFβ1); test: BLI (Octet)
[4] = molecular target: Matrix-associated proTGFβ1 (hLTBP1-proTGFβ1 and hLTBP3-proTGFβ1); test: MSD-SET, hIgG4
[5] = molecular target: Cell-associated proTGFβ1 (hGARP-proTGFβ1 and hLRRC33-proTGFβ1); test: MSD-SET, hIgG4
[6] = molecular target: Cell-associated proTGFβ1 (hGARP-proTGFβ1 and hLRRC33-proTGFβ1); test: MSD-SET, hIgG4; Cell AVRG over ECM AVRG

G/D (fold bias) [1]: 2.61 fold
ECM AVRG (average KD) [2]: 0.246 nM
Cell AVRG (average KD) [3]: 0.644 nM
B1: Ab21 (antibody, V domains shown)
VH: EVQLVESGGGLVQPGGSLRLSCAASGFTFSSFSMDWVRQAPGKGLEWVSYISPDASTIYYADSVKGRFTISRDNAKNSLYLQMNSLRAEDTAVYYCARGVLDYGDMLDPWGQGTLVTVSS
VL: DIQMTQSPSSLSASVGDRVTITCQASQDITNYLNWYQQKPGKAPKLLIYDASNLETGVPSRFSGSGSGTDFTFTISSLQPEDIATYYCQQADNHPPWTFGGGTKVEIK

G/D (fold bias) [1]: 2.42 fold
ECM AVRG (average KD) [2]: 0.222 nM
Cell AVRG (average KD) [3]: 0.537 nM
ECM AVRG (average KD) [4]: 0.023 nM
Cell AVRG (average KD) [5]: 0.1 nM
G/D (fold bias) [6]: 4.35 fold
B2: Ab24 (antibody, V domains shown)
VH: B1 VH with G16R, S33A, D35Y
VL: B1 VL

G/D (fold bias) [1]: 2.31 fold
ECM AVRG (average KD) [2]: 0.296 nM
Cell AVRG (average KD) [3]: 0.684 nM
ECM AVRG (average KD) [4]: 0.029 nM
Cell AVRG (average KD) [5]: 0.081 nM
G/D (fold bias) [6]: 2.8 fold
B3: Ab30 (antibody, V domains shown)
VH: B1 VH with V100T
VL: B1 VL

G/D (fold bias) [1]: 2.15 fold
ECM AVRG (average KD) [2]: 0.324 nM
Cell AVRG (average KD) [3]: 0.695 nM
ECM AVRG (average KD) [4]: 0.042 nM
Cell AVRG (average KD) [5]: 0.114 nM
G/D (fold bias) [6]: 2.71 fold
B4: Ab22 (antibody, V domains shown)
VH: B1 VH with S30G, D35N, S52H, P53S
VL: B1 VL

G/D (fold bias) [1]: 2.03 fold
ECM AVRG (average KD) [2]: 0.443 nM
Cell AVRG (average KD) [3]: 0.897 nM
B5: Ab23 (antibody, V domains shown)
VH: B1 VH with D35N, D54S, S56D, S78T
VL: B1 VL

G/D (fold bias) [1]: 1.74 fold
ECM AVRG (average KD) [2]: 0.208 nM
Cell AVRG (average KD) [3]: 0.361 nM
B6: Ab27 (antibody, V domains shown)
VH: B1 VH with S31F, F32Y, S33A, D35N
VL: B1 VL

ECM AVRG (average KD) [4]: 5.05 nM
Cell AVRG (average KD) [5]: 2.3 nM
G/D (fold bias) [6]: 0.42 fold
B7: Ab4 (antibody, IgG4, V domains shown)
VH: B1 VH with F32Y, D35N, P53S, D54S, A55S
VL: B1 VL

G/D (fold bias) [1]: 1.97 fold
ECM AVRG (average KD) [2]: 0.155 nM
Cell AVRG (average KD) [3]: 0.304 nM
ECM AVRG (average KD) [4]: 0.012 nM
Cell AVRG (average KD) [5]: 0.024 nM
G/D (fold bias) [6]: 2 fold
B8: Ab29 (antibody, V domains shown)
VH: B1 VH with G16R, S33A, D35N, D62G, A97V, G99A
VL: B1 VL

G/D (fold bias) [1]: 2.43 fold
ECM AVRG (average KD) [2]: 0.184 nM
Cell AVRG (average KD) [3]: 0.449 nM
B9: Ab25 (antibody, V domains shown)
VH: B1 VH with S30G
VL: B1 VL

G/D (fold bias) [1]: 2.47 fold
ECM AVRG (average KD) [2]: 0.242 nM
Cell AVRG (average KD) [3]: 0.597 nM
ECM AVRG (average KD) [4]: 0.032 nM
Cell AVRG (average KD) [5]: 0.051 nM
G/D (fold bias) [6]: 1.6 fold
B10: Ab32 (antibody, V domains shown)
VH: B1 VH with D35N, D54S, S56D, S78T, L101W, Y103M
VL: B1 VL

G/D (fold bias) [1]: 1.84 fold
ECM AVRG (average KD) [2]: 0.328 nM
Cell AVRG (average KD) [3]: 0.603 nM
B11: Ab28 (antibody, V domains shown)
VH: B1 VH with A97V
VL: B1 VL

G/D (fold bias) [1]: 2.38 fold
ECM AVRG (average KD) [2]: 0.208 nM
Cell AVRG (average KD) [3]: 0.495 nM
ECM AVRG (average KD) [4]: 0.017 nM
Cell AVRG (average KD) [5]: 0.058 nM
G/D (fold bias) [6]: 3.41 fold
B12: Ab31 (antibody, V domains shown)
VH: B1 VH with S78T, G99A
VL: B1 VL

G/D (fold bias) [1]: 2.5 fold
ECM AVRG (average KD) [2]: 0.197 nM
Cell AVRG (average KD) [3]: 0.492 nM
ECM AVRG (average KD) [4]: 0.026 nM
Cell AVRG (average KD) [5]: 0.072 nM
G/D (fold bias) [6]: 2.77 fold
B13: Ab26 (antibody, V domains shown)
VH: B1 VH with S78T
VL: B1 VL

G/D (fold bias) [1]: 2.08 fold
ECM AVRG (average KD) [2]: 0.145 nM
Cell AVRG (average KD) [3]: 0.302 nM
ECM AVRG (average KD) [4]: 0.009 nM
Cell AVRG (average KD) [5]: 0.027 nM
G/D (fold bias) [6]: 3 fold
B14: Ab33 (antibody, V domains shown)
VH: B1 VH with D35N, D54S, S56D, S78T, R98H
VL: B1 VL
